B1: WW domain-binding protein 4, residues 8 to 43; numbered along this chain, O75554 (parent)
chain: QPKKFCDYCKCWIADNRPSVEFHERGKNHKENVAKR

Variants of: B1
Assay: abundance fitness (aPCA) (normalised: wild type 0, dead -1); higher = more abundant; growth selection in yeast, the domain comes from the species named
Conditions: Homo sapiens

Abundance fitness, by site and new letter:
V33: F -0.182; T -0.23; K -0.278; M -0.074; N -0.572; E 0.022; I -0.404; P -0.315; G -0.22; D -0.22; L -0.205; R -0.149; Q -0.195; A -0.006
N32: A 0.038; K -0.111; Y -0.289; V -0.294; D -0.49; T -0.142; W -0.115; Q 0.035; F -0.405; R -0.1; L -0.166; H -0.172; S -0.086; M -0.228; C -0.158; P -0.473; I -0.446
R36: Q -0.304; A 0.023; M -0.267; G 0.16; K 0.058; S -0.032; C 0.005; W -0.29; P 0.211; E 0.245
K30: G -0.019; W -0.345; L -0.061; Q -0.02; Y -0.391; R 0.049; E 0.053; M -0.177; P -0.246; V -0.036; D -0.265; S -0.117; T 0.201; I 0.085
E31: S -0.326; K -0.107; Q -0.072; G -0.153; A 0.01; D -0.093; C -0.302; H -0.29; L -0.229; W -0.955; T -0.259; R -0.103; N -0.346; V -0.11; M -0.065; P -0.332
A34: I 0.089; C -0.135; R -0.11; F -0.385; G -0.036; L -0.201; H -0.001; E -0.001; T 0.022; S 0.055; D 0.351; V -0.088; Q -0.289; P -0.309; K -0.098; W -0.232
K35: R 0.004; W 0.017; N -0.085; A 0.216; M -0.092; T -0.043; G 0; C -0.951; S -0.034; P -0.002; Q -0.093; V -0.129; L -0.212; E -0.099; D -0.057

— the Human Domainome abundance scans (Beltran et al. 2025)
